This experiment concerns the target recombinant His-p27 (full-length p27Kip1, C-terminal histidine tag) (human) (UniProt P46527). The experiment is described as follows: phage-ELISA, SH3-displaying phage on recombinant His-p27 (multivalent phage, which would enhance binding). (ELISA stands for enzyme-linked immunosorbent assay.)

pKd: −log10 of the molar value.

Sequence of recombinant His-p27 (full-length p27Kip1, C-terminal histidine tag) (human) (P46527 whole entry): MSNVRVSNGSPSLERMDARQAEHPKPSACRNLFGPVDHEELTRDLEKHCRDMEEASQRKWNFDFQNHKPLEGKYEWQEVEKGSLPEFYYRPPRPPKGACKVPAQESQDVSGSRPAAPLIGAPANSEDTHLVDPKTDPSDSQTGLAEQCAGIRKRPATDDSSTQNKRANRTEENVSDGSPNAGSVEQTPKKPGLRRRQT

Turning to “SH3 domain of Brk displayed on phage (from UniProt Q13882 12-70)”, the pKd is 6.60.

Usually pKd stands for the Kd on a negative log10 scale, so that one unit is a factor of ten.

The record behind these values is patent publication US20170065662A1.
